Sequences and labels used below:
B1: Ventral anterior homeobox 1, residues 102 to 157; numbered along this chain, Q5SQQ9 (parent)
chain: RTRTSFTAEQLYRLEMEFQRCQYVVGRERTELARQLNLSETQVKVWFQNRRTKQKK

± gives the uncertainty stated by the source.

The text below walks through data of the Human Domainome abundance scans (Beltran et al. 2025).

In the series the parent is B1. Briefly: abundance fitness (aPCA) (normalised: wild type 0, dead -1); higher = more abundant; growth selection in yeast, the domain comes from the species named. The settings on record: Homo sapiens.
As to E28W, the abundance fitness is -0.483 ± 0.19. For the variant E28G, the abundance fitness was -0.39 ± 0.1. With E28A, the abundance fitness is -0.318 ± 0.12. Regarding E28L, the abundance fitness is -0.369 ± 0.12. For the variant E28C, the abundance fitness is -0.412 ± 0.18.

For E28N, the abundance fitness is -0.459 ± 0.27.

Regarding E28P, the abundance fitness was -0.171 ± 0.22. Next, E28Y: -0.661 ± 0.4; E28K: -0.78 ± 0.28; E28S: -0.338 ± 0.15. Consider E28M, for which the abundance fitness is -0.446 ± 0.2. For E28R, the abundance fitness was -0.596 ± 0.13.

Regarding E28D, the abundance fitness was -0.077 ± 0.24. Consider E28Q, for which the abundance fitness was -0.394 ± 0.19. In the case of E28F, the abundance fitness is -0.513 ± 0.26.

On to E28I, for which the abundance fitness was -0.657 ± 0.29. For E28V, the abundance fitness was -0.419 ± 0.12. As for E28T, the abundance fitness is -0.247 ± 0.17. Turning to E28H, the abundance fitness was -0.318 ± 0.2. Take L32R: the abundance fitness is -0.826 ± 0.2. Consider L32M, for which the abundance fitness is -0.314 ± 0.3.

With L32Q, the abundance fitness is -0.959 ± 0.34.

As to L32W, the abundance fitness was -1.04 ± 0.27. Next, L32V: -0.542 ± 0.19; L32C: -0.777 ± 0.39; L32G: -1.21 ± 0.43. Consider L32A, for which the abundance fitness is -0.791 ± 0.34. The same measure for L32K: -0.641 ± 0.42; for G26W: -0.892 ± 0.3.

G26H: the abundance fitness was -0.413 ± 0.12. G26N: the abundance fitness was -0.318 ± 0.13. Consider G26C, for which the abundance fitness is -0.547 ± 0.15. On to G26P, for which the abundance fitness is -0.208 ± 0.11.

Consider G26Y, for which the abundance fitness was -0.342 ± 0.11. In the case of G26S, the abundance fitness is -0.151 ± 0.083. The same measure for G26E: -0.249 ± 0.24. On to G26Q, for which the abundance fitness is -0.23 ± 0.19. As to G26A, the abundance fitness is -0.155 ± 0.1. For the variant G26V, the abundance fitness was -0.577 ± 0.13. G26K: the abundance fitness is -0.15 ± 0.22.

With G26F, the abundance fitness was -0.278 ± 0.12. Take G26L: the abundance fitness is -0.297 ± 0.094. In the case of G26T, the abundance fitness was -0.453 ± 0.11.

For G26M, the abundance fitness is -0.351 ± 0.17.

For the variant G26D, the abundance fitness is -0.153 ± 0.12. As for G26I, the abundance fitness was -0.63 ± 0.12. As for Q35E, the abundance fitness is -0.032 ± 0.17. As to Q35V, the abundance fitness was -0.265 ± 0.13. Take Q35Y: the abundance fitness was -0.414 ± 0.2. With Q35C, the abundance fitness was -0.08 ± 0.14.

As to Q35I, the abundance fitness is -0.236 ± 0.2. Regarding Q35A, the abundance fitness turned out to be 0.052 ± 0.13. For the variant Q35G, the abundance fitness was -0.182 ± 0.1. In the case of Q35L, the abundance fitness is -0.135 ± 0.14. For Q35T, the abundance fitness is -0.205 ± 0.23. In the case of Q35M, the abundance fitness was -0.087 ± 0.15. For Q35N, the abundance fitness is -0.206 ± 0.24. Next, Q35W: -0.304 ± 0.17; Q35S: 0.037 ± 0.12; Q35H: -0.167 ± 0.26. Q35D: the abundance fitness is -0.005 ± 0.19. For the variant Q35R, the abundance fitness was -0.028 ± 0.11. Next, Q35K: 0.093 ± 0.18. As for Q35F, the abundance fitness was -0.292 ± 0.21. Regarding Q22D, the abundance fitness is -0.081 ± 0.16. As for Q22N, the abundance fitness was -0.285 ± 0.27. As for Q22Y, the abundance fitness is -0.641 ± 0.35.

For Q22E, the abundance fitness worked out at 0.024 ± 0.16. On to Q22T, for which the abundance fitness is -0.17 ± 0.16.

For the variant Q22F, the abundance fitness is -0.585 ± 0.38. With Q22S, the abundance fitness is -0.087 ± 0.12. Q22L: the abundance fitness was -0.437 ± 0.13. On to Q22G, for which the abundance fitness was determined as 0.033 ± 0.1. The same measure for Q22R: -0.32 ± 0.12. As to Q22M, the abundance fitness was -0.249 ± 0.21. As for Q22W, the abundance fitness was -0.383 ± 0.17. Consider Q22V, for which the abundance fitness was -0.324 ± 0.12. Next, Q22A: -0.033 ± 0.12. Consider Q22K, for which the abundance fitness was -0.103 ± 0.21. Next, Q22P: -0.133 ± 0.18; Q22I: -0.38 ± 0.25. As for Q22H, the abundance fitness was -0.251 ± 0.24.

A33R: the abundance fitness is -0.992 ± 0.18. Regarding A33S, the abundance fitness is -0.115 ± 0.12. On to A33H, for which the abundance fitness was -0.925 ± 0.38. As to A33W, the abundance fitness is -0.483 ± 0.19. As for A33D, the abundance fitness was -0.938 ± 0.3.

Take A33L: the abundance fitness was -0.693 ± 0.17. For A33V, the abundance fitness is -0.786 ± 0.17. Turning to A33P, the abundance fitness was -0.997 ± 0.42.

As to A33C, the abundance fitness is -0.295 ± 0.16. On to A33G, for which the abundance fitness was -0.375 ± 0.092.

For the variant A33N, the abundance fitness was -0.897 ± 0.35. The same measure for A33Y: -0.692 ± 0.25.

For A33Q, the abundance fitness is -0.989 ± 0.38.

As to A33E, the abundance fitness is -0.905 ± 0.3. Next, A33T: -0.557 ± 0.28. For the variant E31S, the abundance fitness is -0.386 ± 0.15. Turning to E31D, the abundance fitness is -0.234 ± 0.29. Take E31Q: the abundance fitness was -0.347 ± 0.17.

In the case of E31N, the abundance fitness stood at 0.028 ± 0.41.

Consider E31T, for which the abundance fitness is -0.243 ± 0.19. On to E31W, for which the abundance fitness was -0.721 ± 0.21. As to E31Y, the abundance fitness was -1.04 ± 0.43. E31P: the abundance fitness was -0.662 ± 0.24. The same measure for E31F: -0.795 ± 0.32. With E31R, the abundance fitness was -0.657 ± 0.12.

Consider E31V, for which the abundance fitness is -0.315 ± 0.14. Consider E31C, for which the abundance fitness was -0.683 ± 0.22. Regarding E31L, the abundance fitness was -0.5 ± 0.15.

Consider E31H, for which the abundance fitness was -0.468 ± 0.3. Consider E31I, for which the abundance fitness was -0.399 ± 0.28. E31K: the abundance fitness is -0.592 ± 0.21. Regarding E31G, the abundance fitness is -0.454 ± 0.12. On to R20F, for which the abundance fitness is -0.47 ± 0.26. As to R20W, the abundance fitness was -0.632 ± 0.28. The same measure for R20D: 0.149 ± 0.31; for R20M: -0.001 ± 0.17.

Regarding R20V, the abundance fitness is -0.162 ± 0.12. Consider R20C, for which the abundance fitness was -0.303 ± 0.18. The same measure for R20N: 0.251 ± 0.29; for R20K: -0.428 ± 0.24. Consider R20Y, for which the abundance fitness was -0.436 ± 0.29. Next, R20G: -0.409 ± 0.12; R20Q: -0.226 ± 0.2; R20L: -0.223 ± 0.14. The same measure for R20E: -0.261 ± 0.25; for R20I: -0.386 ± 0.28.

Consider R20S, for which the abundance fitness is -0.04 ± 0.14. The same measure for R20T: -0.305 ± 0.24; for L36G: -0.916 ± 0.12; for L36Q: -0.545 ± 0.18. Regarding L36C, the abundance fitness was -0.165 ± 0.16. With L36V, the abundance fitness was -0.173 ± 0.089. For the variant L36R, the abundance fitness is -0.881 ± 0.13. Next, L36E: -0.983 ± 0.26. The same measure for L36D: -0.643 ± 0.3; for L36K: -1.18 ± 0.42; for L36N: -0.935 ± 0.43. Regarding L36A, the abundance fitness was -0.601 ± 0.12. With L36T, the abundance fitness is -0.264 ± 0.17. Next, L36H: -0.569 ± 0.22. For the variant L36S, the abundance fitness is -0.687 ± 0.13. As for L36M, the abundance fitness is -0.184 ± 0.18.

On to L36Y, for which the abundance fitness was -0.858 ± 0.23. As for L36W, the abundance fitness is -0.696 ± 0.15.

For the variant L36F, the abundance fitness was -0.741 ± 0.21.

Turning to L36P, the abundance fitness is -0.711 ± 0.22. For Y23N, the abundance fitness was determined as 0.069 ± 0.46. Next, Y23F: -0.088 ± 0.24; Y23Q: 0.132 ± 0.34. The same measure for Y23C: -0.145 ± 0.26; for Y23L: 0.055 ± 0.15. Next, Y23M: 0.181 ± 0.28; Y23D: -0.164 ± 0.42; Y23A: 0.082 ± 0.19.

Y23I: the abundance fitness was -0.117 ± 0.29.

For Y23S, the abundance fitness was determined as 0.03 ± 0.15.

Y23V: the abundance fitness was -0.045 ± 0.21. On to Y23K, for which the abundance fitness is 0.051 ± 0.29.

With Y23G, the abundance fitness was -0.21 ± 0.2.

Regarding Y23E, the abundance fitness amounted to 0.012 ± 0.35. Turning to Y23H, the abundance fitness came to 0.04 ± 0.34. Consider Y23W, for which the abundance fitness is -0.527 ± 0.35. C21R: the abundance fitness is -0.229 ± 0.17. For C21V, the abundance fitness was -0.054 ± 0.17. Take C21W: the abundance fitness is -0.635 ± 0.33.
